Substitutions are numbered along the chain they refer to. Blank lines part the entries; values can stand above or below the binder they belong to.
Assays:
human CLDN18.2 [1] = target: T1, human CLDN18.2 (human, UniProt P56856-2 1-261); test: flow cytometry, IgG1 (0-533 nM) on HEK293 cells expressing human CLDN18.2
T1 construct: whole, on cells; also called CLDN18.2 wild-type
T1 sequence (looked up): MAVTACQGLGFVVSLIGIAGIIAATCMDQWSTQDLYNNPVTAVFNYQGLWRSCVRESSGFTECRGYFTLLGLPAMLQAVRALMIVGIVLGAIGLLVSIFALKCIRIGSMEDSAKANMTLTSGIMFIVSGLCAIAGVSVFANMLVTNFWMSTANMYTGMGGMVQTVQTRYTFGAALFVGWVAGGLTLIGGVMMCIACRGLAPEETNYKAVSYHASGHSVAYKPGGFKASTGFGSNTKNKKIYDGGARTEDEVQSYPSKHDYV
Procedure: (§1) Purified CLDN18.2 antibodies were then characterized for affinity and cross-reactivity by flow cytometry. Briefly. HEK293 cells expressing human, cynomolgous monkey, rat or mouse CLDN18.2 were resuspended in FACS Buffer, stained with varying antibody concentrations (0-533 nM), washed with FACS Buffer, stained with Alexa Fluor® 647 AffiniPure F(ab′)₂ Fragment Goat Anti-Human IgG, washed with FACS buffer and stained with FACS buffer supplemented with DAPI. Antibody binding to cells was assessed on a FACSymphony (BD) with gates for live/dead cells. Histograms of median fluorescence intensity (MFI) were used to calculate the geometric mean for each antibody at a given concentration (FlowJo, LLC). Geometric means were plotted in Prism (GraphPad) and used to calculated binding EC₅₀. Representative results are shown for 5 antibodies (ZP1I16_D05 IgG1, 008LY1_D04 IgG1, 08LYG_D08 IgG1, 008M0G_G03 IgG1, ZP1I18_B08 IgG1) and 1 negative control antibody (R347 IgG1) although 31 other prospective antibodies were also characterized (Table 1).

human CLDN18.2 [2] = target: T1, human CLDN18.2; test: flow cytometry on HEK293 cells expressing human CLDN18.2 (FIG. 2A)
Text: FIGS. 2A-2D show CLDN18.2 binding affinity and species cross-reactivity of select leads as determined by flow cytometry measurement in HEK293 cells expressing human (FIG. 2A), cyno (FIG. 2B), rat (FIG. 2C) or mouse (FIG. 2D) CLDN18.2. All leads bind human and cyno CLDN18.2 (99% homology), most leads bind rat CLDN18.2 (90% homology) and only one internal lead binds murine CLDN18.2 (89% homology. R347 is used as a negative control.
as §1

mouse CLDN18.2 = target: T2, mouse CLDN18.2 (mouse, UniProt P56857-3 1-264); test: flow cytometry, IgG1 (0-533 nM) on HEK293 cells expressing mouse CLDN18.2
T2 construct: whole, on cells; also called murine CLDN18.2; mCLDN18.2
T2 sequence (looked up): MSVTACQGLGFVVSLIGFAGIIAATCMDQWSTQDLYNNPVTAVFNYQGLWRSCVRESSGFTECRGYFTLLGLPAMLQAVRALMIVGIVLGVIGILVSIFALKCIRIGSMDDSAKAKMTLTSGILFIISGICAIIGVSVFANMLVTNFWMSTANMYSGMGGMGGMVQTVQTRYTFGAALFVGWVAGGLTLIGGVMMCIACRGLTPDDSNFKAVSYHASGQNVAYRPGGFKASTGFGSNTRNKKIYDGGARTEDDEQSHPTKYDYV
Procedure: as §1

- binding result (human CLDN18.2 [1]): binds
B1: ZP1I16_D05 IgG1 (antibody, V domains shown)
VH: QVQLVQSGAEVKKPGSSVKVSCKASGGTFSSYAISWVRQAPGQGLEWMGGIIPIFGTANYAQKFQGRVTITADESTSTAYMELSSLRSEDTAVYYCARGFIRYGVFDYWGQGTLVTVSS
VL: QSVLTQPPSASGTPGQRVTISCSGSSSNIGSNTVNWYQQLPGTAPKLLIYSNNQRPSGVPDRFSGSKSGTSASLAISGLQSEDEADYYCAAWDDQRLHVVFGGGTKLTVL
notes: Tested as IgG1 with lambda light chain (pOE-IgG1 (λLC))

- binding result (human CLDN18.2 [2]): binds
B2: 008LY1_D04 IgG1 (antibody, V domains shown)
VH: B1 VH with F100Y, I101V, R102Q, V105Y
VL: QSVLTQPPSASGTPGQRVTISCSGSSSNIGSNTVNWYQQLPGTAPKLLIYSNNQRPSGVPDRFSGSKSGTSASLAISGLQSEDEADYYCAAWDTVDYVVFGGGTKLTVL
notes: as for B1

- binding result (human CLDN18.2 [2]): binds
B3: ZP1I18_B08 IgG1 (antibody, V domains shown)
VH: B1 VH
VL: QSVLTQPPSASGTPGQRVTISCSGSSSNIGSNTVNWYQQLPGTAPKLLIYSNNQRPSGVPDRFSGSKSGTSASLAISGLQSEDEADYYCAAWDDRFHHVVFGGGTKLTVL
notes: as for B1

- binding result (human CLDN18.2 [2]): binds
B4: 008M0G_G03 IgG1 (antibody, V domains shown)
VH: B1 VH with F100Y, I101P
VL: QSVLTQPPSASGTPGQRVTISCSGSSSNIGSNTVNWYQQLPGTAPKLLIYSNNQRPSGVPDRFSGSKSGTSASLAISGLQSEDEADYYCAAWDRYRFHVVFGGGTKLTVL
notes: as for B1

- binding result (human CLDN18.2 [2]): binds
- binding result (mouse CLDN18.2): binds
B5: 008LYG_D08 IgG1 (antibody, V domains shown)
VH: B1 VH with F100Y, I101Q, R102G, Y103M, Y108P
VL: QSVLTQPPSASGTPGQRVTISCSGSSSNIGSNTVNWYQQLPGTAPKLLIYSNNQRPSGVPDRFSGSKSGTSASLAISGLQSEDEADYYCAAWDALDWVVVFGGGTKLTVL
notes: as for B1
